Patent publication US20140112930A1 (published 2014)

T1: Monomeric hAng-2FD (human, UniProt O15123 282-496)
T1 construct: also called fibrinogen-like domain of human Ang2; Human Ang-2FD
T1 sequence: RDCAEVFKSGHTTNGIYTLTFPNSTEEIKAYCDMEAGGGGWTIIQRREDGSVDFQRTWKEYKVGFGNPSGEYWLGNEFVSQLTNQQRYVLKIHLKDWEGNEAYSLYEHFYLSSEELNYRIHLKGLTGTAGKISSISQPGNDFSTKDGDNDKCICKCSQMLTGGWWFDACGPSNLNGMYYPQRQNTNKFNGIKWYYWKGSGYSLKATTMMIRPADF

T2: wild-type human Ang-2 (hAng-2-WT) (human, UniProt O15123 19-496)
T2 construct: called full-length wild-type; also called Full-length wild-type human Ang-2
T2 sequence: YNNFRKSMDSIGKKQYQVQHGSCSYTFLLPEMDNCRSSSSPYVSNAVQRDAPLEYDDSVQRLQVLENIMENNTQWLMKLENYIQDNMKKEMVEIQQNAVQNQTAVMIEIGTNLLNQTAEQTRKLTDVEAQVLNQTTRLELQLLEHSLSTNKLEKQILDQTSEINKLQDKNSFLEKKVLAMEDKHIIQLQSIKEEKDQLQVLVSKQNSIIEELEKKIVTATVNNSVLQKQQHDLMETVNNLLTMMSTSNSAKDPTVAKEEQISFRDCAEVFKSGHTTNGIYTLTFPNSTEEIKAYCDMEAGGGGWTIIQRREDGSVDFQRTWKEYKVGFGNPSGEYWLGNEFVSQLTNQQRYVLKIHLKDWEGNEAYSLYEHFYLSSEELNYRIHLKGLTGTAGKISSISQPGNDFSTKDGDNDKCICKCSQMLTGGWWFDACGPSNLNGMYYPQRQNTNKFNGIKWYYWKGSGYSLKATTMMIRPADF


What was measured:
Monomeric hAng-2FD = target: T1, Monomeric hAng-2FD; test: SPR, captured Ab
[1] = target: T2, wild-type human Ang-2 (hAng-2-WT); test: SPR, captured Ab
[2] = target: T3, Dimeric Human Ang-2FD conjugated to human IgG1 (human); test: SPR, captured Ab, RT
T3 construct: also called Human Ang-2FD-hFc; hAng-2FD-hFc
Protocol: (§1) Antibody was captured on a goat anti-mouse IgG polyclonal antibody surface, a goat anti-human κ polyclonal antibody (Southern Biotech, Birmingham, Ala.) surface or a goat anti-human IgG polyclonal antibody (Jackson Immuno Research Lab, West Grove, Pa.) surface created through direct amine coupling to a BIACORE™ CM5 sensor chip to form a captured antibody surface. […] Antigen-antibody binding and dissociation were monitored in real time at room temperature. Kinetic analysis was performed to calculate KD and half-life of antigen/antibody complex dissociation.

[3] = target: T4, Dimeric Mouse Ang-2FD conjugated to human IgG1 (mouse (Mus musculus); human); test: SPR, captured Ab, RT
T4 construct: also called Mouse Ang-2FD-hFc
Protocol: as §1

[4] = target: T5, Dimeric Monkey Ang-2FD conjugated to human IgG1 (monkey (Macca fascicularis); human); test: SPR, captured Ab, RT
T5 construct: also called Monkey Ang-2FD-hFc
Protocol: as §1

[5] = target: T3, Dimeric Human Ang-2FD conjugated to …; test: competition ELISA, 16.67 nM Ab, coated hTie-2-mFc
Protocol: (§2) The plate was then blocked with PBS (Irvine Scientific, Santa Ana, Calif.) containing 0.5% BSA (Sigma-Aldrich Corp., St. Louis, Mo.) for one hour at room temperature. […] Human, mouse or monkey Ang-2FD protein conjugated to human IgG (Ang-2FD-hFc) were added to final concentrations of 2 nM, 8 nM, or 2 nM respectively and incubated for one hour at room temperature. The antibody/Ang-2FD-Fc mixture was then added to the plate containing hTie-2-mFc and incubated for one hour at room temperature. Detection of Ang-2FD-hFc bound to hTie-2-mFc protein was determined with Horse-Radish Peroxidase (HRP) conjugated to a-human IgG antibody (Jackson Immuno Research Lab, West Grove, Pa.) and developed by standard colorimetric response using tetramethylbenzidine (TMB) substrate (BD Biosciences, San Jose, Calif.). Absorbance was read at OD₄₅₀ for 0.1 sec.

[6] = target: T4, Dimeric Mouse Ang-2FD conjugated to …; test: competition ELISA, 16.67 nM Ab, coated hTie-2-mFc
Protocol: as §2

[7] = target: T5, Dimeric Monkey Ang-2FD conjugated to …; test: competition ELISA, 16.67 nM Ab, coated hTie-2-mFc
Protocol: as §2

Binder	Kd (Monomeric hAng-2FD)	T1/2 (Monomeric hAng-2FD)	Kd [1]	T1/2 [1]	Kd [2]	T1/2 [2]	Kd [3]	T1/2 [3]	Kd [4]	T1/2 [4]	Percent Blocking of Ang-2FD Binding to Tie-2 [5]	Percent Blocking of Ang-2FD Binding to Tie-2 [6]	Percent Blocking of Ang-2FD Binding to Tie-2 [7]
H1M732N (antibody, V domains shown) VH: EVQLVESGGGLVRPGGSLRLSCAASGFTFTNAWMSWVRQAPGKGLEWIGQIKSKTDGGTIDYAAPVKGRFTVSRDDSENTLFLQMNSLKTEDTAVYYCAGNWNYVDFDYWGQGTLVTVSS VL: DIQMTQSPSSLSASVGDRVTITCRASQDIRNDLGWYQQKPGKAPKRLIYAASSLQGGVPSRFSGSGSGTEFTLTISSLQPEDFATYYCLQHNSYPFTFGPGTKVDIK	6.13 nM	0.312 h	0.131 nM	5.55 h	0.484 nM	0.592 h	1.7 nM	0.357 h	7.33 nM	0.402 h	97.7%	90.9%	95.8%
H2M742N (antibody, V domains shown) VH: DVQLLESGGDLVQPGGSLRLSCEASGFTFRNYVMIWVRQAPGKGLEWVSGISNSGGTTHYTDSVKGRFTISRDNSKNTLYLQINSLRAEDTAVYYCAKGYLDTSLIEGNWFDPWGQGTLVTVSS VL: NIVMTQSPLSLPVTPGEPASISCRSSQSLLHSNGFNYLNWFLQKPGQSPQLLIYLGSNRASGVPDKFSGSGSGTDFTLNINRVEAEDVGIYFCMQTLQTPLTFGGGTKVEIK	4.81 nM	0.3 h	0.0679 nM	7.28 h	0.295 nM	0.633 h	0.61 nM	0.513 h	6.17 nM	0.475 h	99.6%	98.6%	94.1%

More lines, in order of falling Kd (Monomeric hAng-2FD), values ahead:

Kd (Monomeric hAng-2FD)	T1/2 (Monomeric hAng-2FD)	Kd [1]	T1/2 [1]	Kd [2]	T1/2 [2]	Kd [3]	T1/2 [3]	Kd [4]	T1/2 [4]	Percent Blocking of Ang-2FD Binding to Tie-2 [5]	Percent Blocking of Ang-2FD Binding to Tie-2 [6]	Percent Blocking of Ang-2FD Binding to Tie-2 [7]	Binder
1.17 nM	0.565 h	0.0338 nM	12.1 h	0.137 nM	0.973 h	5.65 nM	0.165 h	1.58 nM	1.16 h	98.5%	83.9%	97.1%	H1M728N (antibody, V domains shown) VH: EVQLVESGGDLVQPGGSLRLSCTASGFTFSKYWMTWVRQAPGRGLEWVANIKEDGNEKYFLDSVKGRFTISRDNAKDLLFLQMNSLRGEDTAVYYCVRDRGIEVAGPFDYWGQGTLVTVSS VL: DIQMTQSPSTLSASVGDRVTVTCRASQTIINWLAWYQQKPGKAPKLLISKASSLESGVPSRFSGSGSGTEFTLTISSLQPDDFATYYCQQYNRYWTFGQGTMVEIK
0.475 nM	1.49 h	0.0289 nM	14.1 h	0.0989 nM	1.82 h	0.143 nM	3.72 h	0.5 nM	4.69 h	99.5%	98.4%	95.5%	H2M744N (antibody, V domains shown) VH: QVQLVQSGVEVKKPGASVKVSCKTSGYTFSNNGFSWVRQAPGQGLEWLGWISGYNGNTNYAQKFQGRVTMTTDTSTSTAYMELRTLRSDDTAVYYCARDQDYSNFHWLDPWGQGTLVTVAS VL: DIQMTQSPSSVSASVGDRVIITCRASQGLSSWLAWYQQKPGTAPKLLIHSASSLQTGVPSRFSGSGSGTEFALTINSLQPEDFGTYYCQQANSFPLTFGGGTRVEIK
0.399 nM	2.61 h	0.0143 nM	39.4 h	0.154 nM	2.78 h	0.882 nM	3.25 h	0.234 nM	2.82 h	99.6%	98.4%	95.1%	H2M743N (antibody, V domains shown) VH: EVQLLESGGGLVQPGGSLRLSCAASGFTFRKYAMSWVRQAPGKGLEWVSVISVSGGNTYYADSVKGRFTISRDNSKNTLYLQLNSLRAEDTAVYYCAKDLTDIVLMVYVDYWGQGTLVTVSS VL: DIQMTQSPSSVSASVGDRVTITCRASQDIDRWLAWYQQKPGKAPKLLIYAASSLQSGVPSRFSGSGSGTDFTLTISTLQPEDFATYYCQQANSLPFTFGGGTKVEIK
